From patent US20250179152A1 (TEXAS A AND M UNIVERSITY SYSTEM, published 2025)
Where “and” joins values, the source holds several entries; their conditions need not be identical. Equal entries are not always repeated.

B1: SR16m (designed binder)
chain: MGSSDLGKKLLEAARAGQDDEVRILMANGADVNALDLFGVTPLHLAAERGHLEIVEVLLKNGADVNAGDAFGRTPLHLAALGGHLEIVEVLLKNGADVNACDLYGVTPLHLAAGLGHLEIVEVLLKNGADVNAQDKFGKTAFDISIDNGNEDLAEILQSSSKLAAALEHHHHHH
B2: FSR22 (designed binder)
chain: MGSSHHHHHHSSGMEQKLISEEDLDGYIPEAPRDGQAYVRKDGEWVLLSTFLGGGGSLQGGGGSLQGSDLGKKLLEAARAGQDDEVRILMANGADVNACDPSGITPLHLAADKGHLEIVEVLLKYGADVNAMDVWGRTPLHLAAFTGHLEIVEVLLKYGADVNACDLNGYTPLHLAAGRGHLEIVEVLLKNGAGVNAQDKFGKTAFDISIDNGNEDLAEILQSSS
B3: FSR16m (designed binder)
chain: MGMEQKLISEEDLDGYIPEAPRDGQAYVRKDGEWVLLSTFLGGGGSLQGGGGSLQGSDLGKKLLEAARAGQDDEVRILMANGADVNALDLFGVTPLHLAAERGHLEIVEVLLKNGADVNAGDAFGRTPLHLAALGGHLEIVEVLLKNGADVNACDLYGVTPLHLAAGLGHLEIVEVLLKNGADVNAQDKFGKTAFDISIDNGNEDLAEILQSSSKLAAALEHHHHHH
B4: SR22 (designed binder)
chain: MGSSHHHHHHSSGLVPRGSHMEQKLISEEDLGSDLGKKLLEAARAGQDDEVRILMANGADVNACDPSGITPLHLAADKGHLEIVEVLLKYGADVNAMDVWGRTPLHLAAFTGHLEIVEVLLKYGADVNACDLNGYTPLHLAAGRGHLEIVEVLLKNGAGVNAQDKFGKTAFDISIDNGNEDLAEILQSSS

Columns and labels:
[1] = molecular target: Δ19 spike protein of strain B.1.351 on pseudotyped lentivirus (SARS-CoV-2 (B.1.351)); assay: cell-based or functional assay
[2] = molecular target: Δ19 spike protein of B.1.617.2 on pseudotyped lentivirus (SARS-CoV-2 (B.1.617.2)); assay: cell-based or functional assay
[3] = molecular target: Δ19 spike protein of C.37 on pseudotyped lentivirus (SARS-CoV-2 (C.37)); assay: cell-based or functional assay
[4] = molecular target: spike protein of authentic SARS-CoV-2 B.1.1.519/BA.2 (SARS-CoV-2 (BA.2)); assay: cell-based or functional assay
[5] = molecular target: spike protein of authentic SARS-CoV-2 B.1.351 (SARS-CoV-2 (B.1.351)); assay: cell-based or functional assay
[6] = molecular target: spike protein of authentic SARS-CoV-2 B.1.1.519/BA.1 (SARS-CoV-2 (BA.1)); assay: cell-based or functional assay
[7] = molecular target: spike protein of authentic SARS-CoV-2 B.1.1.519/BA.1.1 (SARS-CoV-2 (BA.1.1)); assay: cell-based or functional assay
[8] = molecular target: spike protein of authentic SARS-CoV-2 B.1.617.2 (SARS-CoV-2 (B.1.617.2)); assay: cell-based or functional assay
[9] = molecular target: spike protein of authentic SARS-CoV-2 B.1.617.2/AY1 (SARS-CoV-2 (B.1.617.2.AY1)); assay: cell-based or functional assay
[10] = molecular target: T1, human IgG1 Fc-tagged RBD, E484K (SARS-CoV-2; human, UniProt P0DTC2 319-541); assay: ELISA; DARPin coated, Fc-tagged RBD titrated
T1 construct: domain: RBD

[11] = molecular target: T2, human IgG1 Fc-tagged RBD, L452R + T478K (SARS-CoV-2; human, UniProt P0DTC2 319-541); assay: ELISA; DARPin coated, Fc-tagged RBD titrated
T2 construct: domain: RBD

[12] = molecular target: T3, human IgG1 Fc-tagged RBD, F486S (SARS-CoV-2; human, UniProt P0DTC2 319-541); assay: ELISA; DARPin coated, Fc-tagged RBD titrated
T3 construct: domain: RBD

[13] = molecular target: T4, human IgG1 Fc-tagged RBD, F490S (SARS-CoV-2; human, UniProt P0DTC2 319-541); assay: ELISA; DARPin coated, Fc-tagged RBD titrated
T4 construct: domain: RBD

[14] = molecular target: T5, human IgG1 Fc-tagged RBD, Wuhan-1 (SARS-CoV-2 (Wuhan-1); human, UniProt P0DTC2 319-541); assay: ELISA; DARPin coated, Fc-tagged RBD titrated
T5 construct: domain: RBD

[15] = molecular target: T6, human IgG1 Fc-tagged RBD, S477N (SARS-CoV-2; human, UniProt P0DTC2 319-541); assay: ELISA; DARPin coated, Fc-tagged RBD titrated
T6 construct: domain: RBD

[16] = molecular target: T7, human IgG1 Fc-tagged RBD, T478K (SARS-CoV-2; human, UniProt P0DTC2 319-541); assay: ELISA; DARPin coated, Fc-tagged RBD titrated
T7 construct: domain: RBD

[17] = molecular target: T8, human IgG1 Fc-tagged RBD, Y453F (SARS-CoV-2; human, UniProt P0DTC2 319-541); assay: ELISA; DARPin coated, Fc-tagged RBD titrated
T8 construct: domain: RBD

[18] = molecular target: T9, human IgG1 Fc-tagged RBD, V445A (SARS-CoV-2; human, UniProt P0DTC2 319-541); assay: ELISA; DARPin coated, Fc-tagged RBD titrated
T9 construct: domain: RBD

[19] = molecular target: T10, human IgG1 Fc-tagged RBD, K417E (SARS-CoV-2; human, UniProt P0DTC2 319-541); assay: ELISA; DARPin coated, Fc-tagged RBD titrated
T10 construct: domain: RBD

[20] = molecular target: T11, human IgG1 Fc-tagged RBD, S494P (SARS-CoV-2; human, UniProt P0DTC2 319-541); assay: ELISA; DARPin coated, Fc-tagged RBD titrated
T11 construct: domain: RBD

[21] = molecular target: T12, human IgG1 Fc-tagged RBD, L452R (SARS-CoV-2; human, UniProt P0DTC2 319-541); assay: ELISA; DARPin coated, Fc-tagged RBD titrated
T12 construct: domain: RBD

[22] = molecular target: T13, human IgG1 Fc-tagged RBD, G476S (SARS-CoV-2; human, UniProt P0DTC2 319-541); assay: ELISA; DARPin coated, Fc-tagged RBD titrated
T13 construct: domain: RBD

[23] = molecular target: T14, human IgG1 Fc-tagged RBD, L455F (SARS-CoV-2; human, UniProt P0DTC2 319-541); assay: ELISA; DARPin coated, Fc-tagged RBD titrated
T14 construct: domain: RBD

[24] = molecular target: T15, human IgG1 Fc-tagged RBD, L452R + E484Q (SARS-CoV-2; human, UniProt P0DTC2 319-541); assay: ELISA; DARPin coated, Fc-tagged RBD titrated
T15 construct: domain: RBD

[25] = molecular target: T16, human IgG1 Fc-tagged RBD, E484Q (SARS-CoV-2; human, UniProt P0DTC2 319-541); assay: ELISA; DARPin coated, Fc-tagged RBD titrated
T16 construct: domain: RBD

[26] = molecular target: T17, human IgG1 Fc-tagged RBD, K444Q (SARS-CoV-2; human, UniProt P0DTC2 319-541); assay: ELISA; DARPin coated, Fc-tagged RBD titrated
T17 construct: domain: RBD

[27] = molecular target: T18, human IgG1 Fc-tagged RBD, F486V (SARS-CoV-2; human, UniProt P0DTC2 319-541); assay: ELISA; DARPin coated, Fc-tagged RBD titrated
T18 construct: domain: RBD

[28] = molecular target: T19, human IgG1 Fc-tagged RBD, N439K (SARS-CoV-2; human, UniProt P0DTC2 319-541); assay: ELISA; DARPin coated, Fc-tagged RBD titrated
T19 construct: domain: RBD

[29] = molecular target: T20, human IgG1 Fc-tagged RBD, G446V (SARS-CoV-2; human, UniProt P0DTC2 319-541); assay: ELISA; DARPin coated, Fc-tagged RBD titrated
T20 construct: domain: RBD

[30] = molecular target: T5, human IgG1 Fc-tagged RBD, Wuhan-1
[31] = molecular target: human IgG1 Fc-tagged RBD of Omicron (SARS-CoV-2 (Omicron); human)

| Binder | Neutralization IC50, pseudotyped lentivirus [1] | Neutralization IC50, pseudotyped lentivirus [2] | Neutralization IC50, pseudotyped lentivirus [3] | Neutralization IC50, authentic SARS-CoV-2 virus [4] | Neutralization IC50, authentic SARS-CoV-2 virus [5] | Neutralization IC50, authentic SARS-CoV-2 virus [6] | Neutralization IC50, authentic SARS-CoV-2 virus [7] | Neutralization IC50, authentic SARS-CoV-2 virus [8] | Neutralization IC50, authentic SARS-CoV-2 virus [9] | EC50 [10] | EC50 [11] | EC50 [12] | EC50 [13] | EC50 [14] | EC50 [15] | EC50 [16] | EC50 [17] | EC50 [18] | EC50 [19] | EC50 [20] | further results |
| --- | --- | --- | --- | --- | --- | --- | --- | --- | --- | --- | --- | --- | --- | --- | --- | --- | --- | --- | --- | --- | --- |
| B1 | 0.42 µM | 77.8 nM | – | – | – | – | – | – | – | – | – | – | – | – | – | – | – | – | – | – | – |
| B2 | 9.5 ng/ml and 135 pM | 13.3 ng/ml and 188 pM | 6.3 ng/ml and 89 pM | 216 ngml^-1 | 57.2 ngml^-1 | 169 ngml^-1 | 41.2 ngml^-1 | 41.7 ngml^-1 | 44.2 ngml^-1 | 4.57 nM | 7.83 nM | 70.5 nM | 1.57 nM | 1.96 nM | 1.57 nM | 15.2 nM | 3.97 nM | 3.43 nM | 300 nM | 0.61 nM | EC50 [21]: 1.87 nM; EC50 [22]: 27.2 nM; EC50 [23]: 9.24 nM; EC50 [24]: 4.05 nM; EC50 [25]: 4.05 nM; EC50 [26]: 5.92 nM; EC50 [27]: 105 nM; EC50 [28]: 2.63 nM; EC50 [29]: 30.6 nM; Kd [30]: 12.3 nM; Kd [31]: 2.63 nM |
| B3 | 18 pM and 1.3 ng/ml | 66 pM and 4.8 ng/mL | 0.9 ng/ml and 13 pM | 33.3 ngml^-1 | 3.4 ngml^-1 | 44.7 ngml^-1 | 7.4 ngml^-1 | 2.2 ngml^-1 | 3.3 ngml^-1 | 0.21 nM | 0.13 nM | ≥ 300 nM | 0.15 nM | 0.59 nM | 0.63 nM | 0.19 nM | 0.74 nM | 0.46 nM | 300 nM | 0.26 nM | EC50 [21]: 0.37 nM; EC50 [22]: 5.73 nM; EC50 [23]: 0.1 nM; EC50 [24]: 0.21 nM; EC50 [25]: 0.34 nM; EC50 [26]: 1.03 nM; EC50 [27]: 300 nM; EC50 [28]: 0.75 nM; EC50 [29]: 7.65 nM; Kd [30]: < 0.001 nM; Kd [31]: 3.65 nM |
| B4 | 1.1 µM | 69.8 nM | – | – | – | – | – | – | – | – | – | – | – | – | – | – | – | – | – | – | – |
